Assays:
[1] = molecular target: T1, MAGEA4 peptide on HLA-A*01:01 (human); experiment: cytokine release
T1 peptide: TTEEQEAAV
Experimental: (§1) FIG. 7. […] IFNγ release to the supernatant was measured by ELISA after 18 hours of coculture.

[2] = molecular target: T2, MAGEA4 peptide on HLA-A*01:01 (human); experiment: cytokine release
T2 peptide: WVQENYLEYR
Experimental: as §1

[3] = molecular target: T3, MAGEA4 peptide on HLA-A*01:01 (human); experiment: cytokine release
T3 peptide: TLVTCLGLSY
Experimental: as §1

[4] = molecular target: T4, MAGEA3 peptide on HLA-A*01:01 (human); experiment: cytokine release
T4 peptide: EVDPIGHLY
Experimental: as §1

[5] = molecular target: T5, titin peptide on HLA-A*01:01 (human); experiment: cytokine release
T5 peptide: ESDPIVAQY
Experimental: as §1

[6] = molecular target: T6, MAGEA4 peptide on HLA-A*01:01 (human); experiment: cytokine release
T6 peptide: KEVDPASNTY
Experimental: as §1

[7] = molecular target: T7, MAGEA4 peptide on HLA-A*01:01 (human); experiment: cytokine release
T7 peptide: EVDPASNTYT
Experimental: as §1

[8] = molecular target: T8, MAGEA4 peptide on HLA-A*01:01 (human); experiment: cytokine release
T8 peptide: LTQDWVQENY
Experimental: as §1

[9] = molecular target: T9, MAGEA4 peptide on HLA-A*01:01 (human); experiment: cytokine release
T9 peptide: WVQENYLEY
Experimental: as §1

[10] = molecular target: T10, MAGEA4 peptide on HLA-A*01:01 (human); experiment: cytokine release
T10 peptide: DWVQENYLEY
Experimental: as §1

[11] = molecular target: T11, MAGEA4 peptide on HLA-A*01:01 (human); experiment: cytokine release
T11 peptide: TQDWVQENY
Experimental: as §1

[12] = molecular target: T12, MAGEA4 peptide on HLA-A*01:01 (human); experiment: cytokine release
T12 peptide: ELAHFLLRKY
Experimental: as §1

[13] = molecular target: T13, MAGEA4 peptide on HLA-A*01:01 (human); experiment: cytokine release
T13 peptide: LVTCLGLSY
Experimental: as §1

[14] = molecular target: T14, MAGEA4 peptide on HLA-A*01:01 (human); experiment: IFN-gamma ELISA after 18 h; 1x10^5 TCR-transduced T cells with 5x10^4 peptide-loaded K562-A*01:01; two donors pooled, non-linear regression; full-length, on cells
T14 peptide: EVDPASNTY
Experimental: FIG. 6. […] The results of two donors were pooled and normalized as percentage of max. The depicted EC50 value was calculated by non-linear regression.
To calculate the EC50 value, non-linear regression was used to create a dose-response curve (FIG. 6). […] The K562 cells express HLA-A*01:01.

binding result [1]: no recognition | binding result [2]: no recognition | binding result [3]: no recognition | binding result [4]: no recognition | binding result [5]: no recognition | binding result [6]: recognises | binding result [7]: recognises | binding result [8]: no recognition | binding result [9]: no recognition | binding result [10]: no recognition | binding result [11]: no recognition | binding result [12]: no recognition | binding result [13]: no recognition | EC50 of peptide [14]: 7.6 nM
B1: CTC-TCR127 (TCR)
alpha TRAV35*01 CDR3: AGQLWGGSNYKLT
beta TRBV5-1*01 CDR3: ASSLAGTGAHFITNEKLF
